Measurements taken from the supplement of paper PMC9170038.

System: MS2 coat protein
Assay: apparent KD of MS2 coat protein; designed switch direction (-1 OFF switch, 1 ON switch): -1; higher = weaker reporter binding
Method in brief: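 Designed RNA switches were transcribed on Illumina chips by stalled E. coli RNA polymerase and titrated with SNAP-549-labelled MS2 coat protein from 0.7 or 1.5 nM, doubling to 3 µM. Step length ran from 0.8–1.5 h at the lowest concentration to 10–20 min at the highest. The apparent KD is the median over clusters for each design, from curve-fitted normalised cluster fluorescence.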

[1] = input ligand: microRNA oligo, concentration not stated
[2] = Eterna round: R95, input ligand: FMN 200 uM
[3] = Eterna round: R95, input ligand: microRNA oligo, concentration not stated
[4] = Eterna round: R95, input ligand: none

| Sequence | apparent KD of MS2 coat protein (input ligand: FMN 200 uM) [nM] | apparent KD of MS2 coat protein [1] [nM] | apparent KD of MS2 coat protein (input ligand: none) [nM] | apparent KD of MS2 coat protein [2] [nM] | apparent KD of MS2 coat protein [3] [nM] | apparent KD of MS2 coat protein [4] [nM] |
| --- | --- | --- | --- | --- | --- | --- |
| AAAAAAUUGAGAGGAUAUGGUGCCGAAACGGUGCUAGAAGGUUUUAUAAAAAAACAUGAGGAUCACCCAUGUUCAUGUAAAAAA [AK ExNG1-1] (Eterna round: R96, puzzle: Exclusion NG 1) | 17.2 | 16.1 | 18 | – | – | – |
| AAAAAGCUAGGAUAUACAUGAGGAUCACCCAUGUGAGGGCACCGCGGGCGCGGGACCGGUAGAAGGAGCAAAAA [Exc;s3-III] (puzzle: Exclusion 3) | – | – | – | 23.5 | 24.9 | 29.1 |
| AAAAAGUGAGGAUAUACAUAAGGACCCGGGAGGGAAAUAAAACAUGAGGAUCACCCAUGUAGAAGGCACAAAAA [Exclss2-I] (puzzle: Exclusion 2) | – | – | – | 20.2 | 22.2 | 13.5 |
| AAAACAAAGCUAGGAUAUUGUCCGAUGUAGCGAUAAGAAGGAGCAGAGUACGUCUGGUCCACAUGAGGAUCACCCAUGUACAAA [Inmaon] (Eterna round: R96, puzzle: Exclusion NG 1) | 183 | 79.6 | 67.5 | – | – | – |
| AAAACAGUGUAGGAUAUGGCUGGGCUGAAAAUGCUAGAAGGACACACAUGAGGAUCACCCAUGUGACUUCGUGC [Atri] (puzzle: Exclusion 6) | – | – | – | – | 12.5 | – |
| AAAAGACAAGGAUAUACUUGGAAAAUAAAGCUUGAGGAAGUACUUGAGGAUCACCCAAGUAGAAGGUGUAGGCG [Edtiisre] (Eterna round: R97, puzzle: Exclusion 2) | 37.7 | – | 31.5 | – | – | – |
| AAAAGCAAGUAAAGAUUCUACAUGAGGAUCACCCAUGUGCUCGUCUUAUAAAGUACUAUCACGAAAGUGAUAGUACA [Sensor 3, v1 - 43] (puzzle: Sensor v3, turn-off variant 1) | – | – | – | 19.4 | 124 | 17.6 |
| AAAAUGUAAGGAUAUAGCCGGAACCCAGGGUCAAUACCCGGCUAGAAGGUACAUGAGGAUCACCCAUGUAAGAA [Excls4-VI] (puzzle: Exclusion 4) | – | – | – | 21.6 | 18.9 | 16.5 |
| AAAAUGUGAGGAUAUCACGGAGCUCCGCGUGACGAAGCUCCUGAGAAGGCACAUGAGGAUCACCCAUGUCCUGU [EX4 A.30] (Eterna round: R97, puzzle: Exclusion 4) | 296 | – | 54.4 | – | – | – |
| AAACCCAGAGGAUAUGCUGACUCCGACAUGAGGAUCACCCAUGUAGCGACUCUUCAUGCAGCAGAAGGUUGAUUUU [Eternabot (L1) Solution 66] (Eterna round: R97, puzzle: Exclusion 5) | 235 | – | 271 | – | – | – |
| AAACCUGAAGUUAGGAUAUGAAGUAUCACUAUACUUCAGAAGGAACUUGAGGAUCACCCAAGUAGCCGUGAGGC [jl-bmx4.4.66 ViennaUCT mod] (Eterna round: R97, puzzle: Brourd's mod of Exclusion 4) | 110 | – | 23 | – | – | – |
| AAAGAAACAGGAUAUGUAGGCUGCGACAUGAGGAUCACCCAUGUGUCGGUAUACAGUCCUAUAGAAGGGUUAUGAC [Tieder] (puzzle: Exclusion 5) | – | – | – | – | 13.1 | – |
| AAAGACCUGGAGGAUAUCAGACACACCAGCGUCUGAGAAGGCCAGACAUGAGGAUCACCCAUGUAGGGUUCUCC [EX6 B.22] (Eterna round: R97, puzzle: Exclusion 6) | 104 | – | 29.4 | – | – | – |
| AAAGAGCGAGGAUAUACAUGAGGAUCACCCAUGUAAAGAUGCAUGGUCUGAACGUCUGGUAGAAGGCGUAUGAA [Diatater] (puzzle: Exclusion 3) | – | – | – | – | 98.7 | – |
| AAAGGACGAGGAUAUACAUGAGGAUCACCCAUGUAAGAAGCAUAAUAAAAUAACUUAUGUAGAAGGCGUCCAAA [Mat - Exclusion 3 - Eli mod - D94] (Eterna round: R96, puzzle: Exclusion 3) | – | 17 | – | – | – | – |
| AAAGGGCGUGUGAGGAUAUCGACCCGACUUCCAGUCGAGAAGGCACAUGAGGAUCACCCAUGUGAUGACAGCGA [BmEX4 B.8] (Eterna round: R97, puzzle: Brourd's mod of Exclusion 4) | 38.4 | – | 16.2 | – | – | – |
| AAAGGUGAGUAGGAUAUCCGCGCACGAAUAAAAGGAGAAGGACUUACAUGAGGAUCACCCAUGUAAGGUGGUAA [Ationbi] (puzzle: Exclusion 6) | – | – | – | 19.4 | 11.7 | 15.1 |
